Assays:
cyclic peptide CP9 = assay: SPR; settings: both partners purified
cyclic peptide CP10 = assay: SPR; settings: both partners purified

B1: hemagglutinin (HA) ectodomain of A/New Caledonia/20/1999 (H1N1) (domain or fragment)
chain: not shown
modifications: biotin on the BirA site
Cyclic peptide CP9
  koff: 0.351 s⁻¹
  kon: 108000 M⁻¹ s⁻¹
Cyclic peptide CP10
  koff: 0.378 s⁻¹
  kon: 50300 M⁻¹ s⁻¹
